For orientation: Kd means the free concentration of one partner at which half of the binding sites on the other are occupied at equilibrium, for simple one-to-one binding. The low end stands for a tighter complex, the high end for a looser complex.

Here are results for two molecules from PMC6355983, “Structure of the Large Extracellular Loop of FtsX and Its Interaction with the Essential Peptidoglycan Hydrolase PcsB in Streptococcus pneumoniae” (mBio, 2019).

Assay [1] addresses T1, PcsB coiled-coil domain, PscBCC(47–267) (Streptococcus pneumoniae, UniProt A0A0H2US70 47-267).
T1 construct: PcsB peptidoglycan hydrolase, Streptococcus pneumoniae, coiled-coil domain, residues 47 to 267; also called PcsB-CC(47–267); His-PscBCC(47–267); source: E. coli strain derived from BL21(DE3)
T1 sequence (looked up): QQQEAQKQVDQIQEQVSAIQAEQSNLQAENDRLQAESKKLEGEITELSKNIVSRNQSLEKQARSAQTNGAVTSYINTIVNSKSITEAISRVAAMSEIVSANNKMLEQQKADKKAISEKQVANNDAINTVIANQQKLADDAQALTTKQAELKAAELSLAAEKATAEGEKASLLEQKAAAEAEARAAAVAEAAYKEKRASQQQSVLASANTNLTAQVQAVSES
The assay is described as follows: ITC; titration of PscBCC with FtsX_(ECL1) (wild type or L115A M119A); 50 mM potassium phosphate, 50 mM NaCl, 0.5 mM EDTA, pH 7.0, 25.0°C; one-site binding model. Particulars: both partners purified.

Another assay has as its target T2, PcsB CC (Streptococcus pneumoniae, UniProt A0A0H2ZQ76).
T2 chain: T1 sequence (looked up)
As to the kind of experiment: ITC; given as Ka. For orientation: In ITC the heat of successive injections is recorded.

B1: FtsX large extracellular loop 1 (FtsX_(ECL1)), residues 46 to 168 (domain or fragment, Streptococcus pneumoniae, UniProt Q04LE4 46-168, looked up)
chain: NTAKLATDIENNVRVVVYIRKDVEDNSQTIEKEGQTVTNNDYHKVYDSLKNMSTVKSVTFSSKEEQYEKLTEIMGDNWKIFEGDANPLYDAYIVEANAPNDVKTIAEDAKKIEGVSEVQDGGA
notes: FtsX, Streptococcus pneumoniae, large extracellular loop (ECL1), residues 46 to 168; Uniformly 15N-labelled when observed by NMR, unlabelled when added to 15N PcsBCC(47-254) and in ITC; also called wild-type (WT) FtsX_(ECL1); Spn ECL1; source: E. coli strain derived from BL21(DE3); LB or M9 minimal medium with 15NH4Cl
With B1, in assay [1], the Ka is 30000 M⁻¹, binding was characterised by a dissociation constant (Kd) of 34 ± 6 µM and the dH was -2.1 ± 0.2 kcal/mol.

B2: FtsX ECL1 (protein)
chain: TAKLATDIENNVRVVVYIRKDVEDNSQTIEKEGQTVTNNDYHKVYDSLKNMSTVKSVTFSSKEEQYEKLTEIMGDNWKIFEGDANPLYDAYIVEANAPNDVKTIAEDAKKIEGVSEVQDGGA
With B2, the dissociation constant Kd in the assay with PcsB CC turned out to be 33.3 µM.
